This assay deals with T1, CD6 (basal, native) on non-transduced T cells (human, UniProt P30203 18-668).
T1 construct: whole, on cells; also called basal CD6 expression on normal T cells
T1 sequence (looked up): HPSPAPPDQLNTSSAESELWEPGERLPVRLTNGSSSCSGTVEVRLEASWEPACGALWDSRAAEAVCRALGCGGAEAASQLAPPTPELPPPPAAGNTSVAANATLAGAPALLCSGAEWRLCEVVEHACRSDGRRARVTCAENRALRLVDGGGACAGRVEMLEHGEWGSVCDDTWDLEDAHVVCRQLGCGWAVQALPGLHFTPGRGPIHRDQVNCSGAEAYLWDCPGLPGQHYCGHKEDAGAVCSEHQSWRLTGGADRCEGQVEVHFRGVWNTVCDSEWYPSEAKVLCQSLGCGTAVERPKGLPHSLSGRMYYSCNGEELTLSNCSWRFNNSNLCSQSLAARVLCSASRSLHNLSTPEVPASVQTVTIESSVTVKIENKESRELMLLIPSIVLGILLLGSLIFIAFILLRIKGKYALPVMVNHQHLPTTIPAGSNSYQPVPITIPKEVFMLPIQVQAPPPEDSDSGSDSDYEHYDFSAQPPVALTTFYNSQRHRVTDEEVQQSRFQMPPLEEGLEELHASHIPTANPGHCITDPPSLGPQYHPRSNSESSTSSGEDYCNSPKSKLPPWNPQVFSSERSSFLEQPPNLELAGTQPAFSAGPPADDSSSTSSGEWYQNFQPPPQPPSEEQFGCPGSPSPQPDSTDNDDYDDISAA
In words: flow cytometry; non-transduced T cells stained with ALCAM-Fc and anti-human IgG1 Fc FITC. As to the method:
A) FACS analysis was used to confirm ALCAM specific binding to MBE CD6 D3 constructs on the surface of primary T cells. Cells were incubated with IgG1 Fc linked recombinant human ALCAM followed by an anti-human IgG1 Fc FITC conjugated Ab (filled black histogram). Staining of cells with anti-human IgG1 Fc FITC alone (open grey histogram), staining of non-transduced T cells (NT) (dotted open histogram) served as control for basal CD6 expression on normal T cells which bind natively to ALCAM.Fc. and percentage transduction is determined after staining of monomer, monomer+signaling domain, trimer, trimer+signaling domain, pentamer and pentamer+signaling domain (grey-filled histogram) (FIG. 6).
A general note: A flow cytometer gives signals particle by particle.

B1: IgG1 Fc linked recombinant human ALCAM (Fc fusion, UniProt Q13740 28-527, looked up)
chain: WYTVNSAYGDTIIIPCRLDVPQNLMFGKWKYEKPDGSPVFIAFRSSTKKSVQYDDVPEYKDRLNLSENYTLSISNARISDEKRFVCMLVTEDNVFEAPTIVKVFKQPSKPEIVSKALFLETEQLKKLGDCISEDSYPDGNITWYRNGKVLHPLEGAVVIIFKKEMDPVTQLYTMTSTLEYKTTKADIQMPFTCSVTYYGPSGQKTIHSEQAVFDIYYPTEQVTIQVLPPKNAIKEGDNITLKCLGNGNPPPEEFLFYLPGQPEGIRSSNTYTLTDVRRNATGDYKCSLIDKKSMIASTAITVHYLDLSLNPSGEVTRQIGDALPVSCTISASRNATVVWMKDNIRLRSSPSFSSLHYQDAGNYVCETALQEVEGLKKRESLTLIVEGKPQIKMTKKTDPSGLSKTIICHVEGFPKPAIQWTITGSGSVINQTEESPYINGRYYSKIIISPEENVTLTCTAENQLERTVNSLNVSAISIPEHDEADEISDENREKVNDQAK
notes: also called ALCAM-fc; ALCAM-Fc; not shown: IgG1 Fc (detected with anti-human IgG1 Fc antibody)
As to B1, the binding result is on record as “binds”.

The values are drawn from US20220313831A1 (BAYLOR COLLEGE OF MEDICINE, published 2022).
